Laboratory results taken from patent publication US20250262210A1 (TRUSTEES OF COLUMBIA UNIVERSITY IN THE CITY OF NEW YORK, published 2025).

What was measured:
[1] = biological target: T1, SNX14 (human, UniProt Q9Y5W7 1-946, limits assumed); assay: IP/MS, LZTR1 wild type-FLAG, U87
T1 sequence (looked up): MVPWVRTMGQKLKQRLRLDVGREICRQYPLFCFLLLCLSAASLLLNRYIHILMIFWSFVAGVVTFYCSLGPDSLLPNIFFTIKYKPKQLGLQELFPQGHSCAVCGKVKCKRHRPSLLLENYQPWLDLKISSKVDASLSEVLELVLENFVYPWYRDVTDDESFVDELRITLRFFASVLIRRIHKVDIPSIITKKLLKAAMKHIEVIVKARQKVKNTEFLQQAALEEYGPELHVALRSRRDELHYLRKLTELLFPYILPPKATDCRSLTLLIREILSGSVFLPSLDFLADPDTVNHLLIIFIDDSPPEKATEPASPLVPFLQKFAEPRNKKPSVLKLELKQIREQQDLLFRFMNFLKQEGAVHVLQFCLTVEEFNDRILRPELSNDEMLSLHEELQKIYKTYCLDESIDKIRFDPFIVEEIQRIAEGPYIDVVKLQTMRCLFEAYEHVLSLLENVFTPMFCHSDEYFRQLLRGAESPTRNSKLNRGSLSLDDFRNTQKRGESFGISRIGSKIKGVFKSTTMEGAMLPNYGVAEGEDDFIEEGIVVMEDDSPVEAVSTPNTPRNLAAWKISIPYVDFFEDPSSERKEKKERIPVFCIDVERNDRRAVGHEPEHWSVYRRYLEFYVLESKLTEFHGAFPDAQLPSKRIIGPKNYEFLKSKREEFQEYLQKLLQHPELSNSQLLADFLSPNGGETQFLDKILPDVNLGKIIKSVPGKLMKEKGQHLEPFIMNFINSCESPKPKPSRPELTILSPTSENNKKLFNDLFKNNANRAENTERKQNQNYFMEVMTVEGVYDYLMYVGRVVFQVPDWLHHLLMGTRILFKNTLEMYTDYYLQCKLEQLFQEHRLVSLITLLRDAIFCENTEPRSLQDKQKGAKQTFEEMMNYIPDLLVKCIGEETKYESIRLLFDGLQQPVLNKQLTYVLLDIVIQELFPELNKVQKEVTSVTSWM
Outline: (§1)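 Extracted peptides in 3% acetonitrile/0.1% formic acid ran on a 50 cm C18 column into an Orbitrap Fusion, with MaxQuant identification and spectral counting.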

[2] = biological target: T2, POLR3A (human, UniProt O14802 1-1390); assay: IP/MS, LZTR1 wild type-FLAG, U87
T2 sequence (looked up): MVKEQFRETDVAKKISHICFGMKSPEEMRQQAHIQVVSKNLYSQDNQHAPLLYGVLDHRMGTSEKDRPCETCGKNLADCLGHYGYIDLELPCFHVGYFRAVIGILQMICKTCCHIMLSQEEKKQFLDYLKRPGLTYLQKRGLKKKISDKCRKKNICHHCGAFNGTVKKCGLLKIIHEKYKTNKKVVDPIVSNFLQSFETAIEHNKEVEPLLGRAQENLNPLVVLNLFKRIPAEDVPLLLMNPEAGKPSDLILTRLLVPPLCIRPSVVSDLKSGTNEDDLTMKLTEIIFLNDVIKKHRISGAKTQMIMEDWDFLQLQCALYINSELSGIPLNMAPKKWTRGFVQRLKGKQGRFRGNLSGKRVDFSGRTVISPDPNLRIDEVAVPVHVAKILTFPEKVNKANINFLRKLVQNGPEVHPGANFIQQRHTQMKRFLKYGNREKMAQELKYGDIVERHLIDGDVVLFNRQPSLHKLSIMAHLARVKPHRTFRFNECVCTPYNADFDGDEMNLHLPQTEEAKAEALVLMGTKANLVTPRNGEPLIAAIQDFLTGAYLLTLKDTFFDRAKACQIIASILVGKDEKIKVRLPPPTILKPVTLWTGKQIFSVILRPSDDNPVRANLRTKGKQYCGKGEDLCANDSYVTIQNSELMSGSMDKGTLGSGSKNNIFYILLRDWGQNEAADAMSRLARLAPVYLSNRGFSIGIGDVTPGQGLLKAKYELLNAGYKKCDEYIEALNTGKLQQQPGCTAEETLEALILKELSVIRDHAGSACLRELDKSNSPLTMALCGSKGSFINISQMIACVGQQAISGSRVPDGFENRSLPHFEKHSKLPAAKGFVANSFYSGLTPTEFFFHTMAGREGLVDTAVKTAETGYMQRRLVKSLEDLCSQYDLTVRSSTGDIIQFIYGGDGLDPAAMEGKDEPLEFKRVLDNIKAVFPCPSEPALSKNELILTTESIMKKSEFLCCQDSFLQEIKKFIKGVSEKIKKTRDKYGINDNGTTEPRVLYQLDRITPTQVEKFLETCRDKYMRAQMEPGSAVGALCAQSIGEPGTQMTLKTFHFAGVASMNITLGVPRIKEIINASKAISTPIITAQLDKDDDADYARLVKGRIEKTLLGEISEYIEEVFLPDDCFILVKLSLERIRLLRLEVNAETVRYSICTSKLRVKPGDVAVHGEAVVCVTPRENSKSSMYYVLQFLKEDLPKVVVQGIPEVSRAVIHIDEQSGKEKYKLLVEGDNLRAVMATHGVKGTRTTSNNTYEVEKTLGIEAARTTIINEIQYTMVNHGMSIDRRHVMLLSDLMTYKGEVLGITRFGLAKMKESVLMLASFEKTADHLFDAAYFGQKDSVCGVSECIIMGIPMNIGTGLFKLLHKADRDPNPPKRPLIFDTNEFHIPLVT
Outline: as §1

- binding result [1]: binds
- binding result [2]: binds
B1: LZTR1-FLAG (other, human, UniProt Q8N653 1-840, looked up)
chain: MAGPGSTGGQIGAAALAGGARSKVAPSVDFDHSCSDSVEYLTLNFGPFETVHRWRRLPPCDEFVGARRSKHTVVAYKDAIYVFGGDNGKTMLNDLLRFDVKDCSWCRAFTTGTPPAPRYHHSAVVYGSSMFVFGGYTGDIYSNSNLKNKNDLFEYKFATGQWTEWKIEGRLPVARSAHGATVYSDKLWIFAGYDGNARLNDMWTIGLQDRELTCWEEVAQSGEIPPSCCNFPVAVCRDKMFVFSGQSGAKITNNLFQFEFKDKTWTRIPTEHLLRGSPPPPQRRYGHTMVAFDRHLYVFGGAADNTLPNELHCYDVDFQTWEVVQPSSDSEVGGAEVPERACASEEVPTLTYEERVGFKKSRDVFGLDFGTTSAKQPTQPASELPSGRLFHAAAVISDAMYIFGGTVDNNIRSGEMYRFQFSCYPKCTLHEDYGRLWESRQFCDVEFVLGEKEECVQGHVAIVTARSRWLRRKITQARERLAQKLEQEAAPVPREAPGVAAGGARPPLLHVAIREAEARPFEVLMQFLYTDKIKYPRKGHVEDVLLIMDVYKLALSFQLCRLEQLCRQYIEASVDLQNVLVVCESAARLQLSQLKEHCLNFVVKESHFNQVIMMKEFERLSSPLIVEIVRRKQQPPPRTPLDQPVDIGTSLIQDMKAYLEGAGAEFCDITLLLDGHPRPAHKAILAARSSYFEAMFRSFMPEDGQVNISIGEMVPSRQAFESMLRYIYYGEVNMPPEDSLYLFAAPYYYGFYNNRLQAYCKQNLEMNVTVQNVLQILEAADKTQALDMKRHCLHIIVHQFTKVSKLPTLRSLSQQLLLDIIDSLASHISDKQCAELGADI
notes: Expressed in HEK 293T, HeLa or U87 cells; used as cell lysate; also called LZTR1 wild type-FLAG; LZTR1 WT; not shown: FLAG tag at the C-terminus
